Measurements taken from patent US20180010140A1 (WASHINGTON STATE UNIVERSITY, published 2018).

T1: BPM4 (At3 g03740), yeast two-hybrid construct (Arabidopsis thaliana, UniProt Q9SRV1 1-465, limits assumed)
T1 construct: Yeast two-hybrid fusion
T1 sequence (looked up): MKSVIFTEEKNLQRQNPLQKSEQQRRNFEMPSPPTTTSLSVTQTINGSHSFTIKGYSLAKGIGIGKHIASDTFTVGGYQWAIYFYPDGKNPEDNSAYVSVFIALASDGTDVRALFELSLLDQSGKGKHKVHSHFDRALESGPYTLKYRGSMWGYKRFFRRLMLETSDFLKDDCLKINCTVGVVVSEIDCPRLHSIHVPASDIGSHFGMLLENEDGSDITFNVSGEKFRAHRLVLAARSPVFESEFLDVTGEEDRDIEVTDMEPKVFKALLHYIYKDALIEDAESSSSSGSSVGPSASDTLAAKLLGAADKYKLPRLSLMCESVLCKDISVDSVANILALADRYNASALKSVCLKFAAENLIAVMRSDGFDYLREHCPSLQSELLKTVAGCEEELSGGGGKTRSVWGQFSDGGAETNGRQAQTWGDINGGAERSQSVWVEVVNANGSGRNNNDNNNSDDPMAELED

B1: BPM1 (At5 g19000), yeast two-hybrid construct (other, Arabidopsis thaliana, UniProt Q8L765 1-407, looked up)
chain: MGTTRVCSEVSSGSSKSLSQSLTVSTSTTETVNGFHEFKICGYSLAKGVGVGKYVASDTFMVGGYSWAIYFYPDGKSPEDNSSYVSLFIALASEGADVRALFELTLVDQSGNGKHKVHSHFGRALDSGPYTLKYRGSMWGYKRFFRRSSLESSDYLKENSLLVRCRVGVVKSVTEGPRYYNIPVPVSNLGQQLGNLLESGKGCDVVFQVDGETFNAHKLVLATRSPVFNAQLFGPLGDRNTKCITIEDMEAPIFKVLLHFIYWDELPDMQELIGTDSTLASTLVAQHLLAAADRYALERLKAICESKLCEGVAINTVATTLALAEQHHCLQLKAVCLKFVALPENLKAVMQTDGFDYLKESCPSLLTELLQYVARLSEHSVIVSGHRKEIFADGCDASGRRVKPRLH
notes: also called BTB/POZ-MATH protein 1
B2: WRI1 (At3 g54320), yeast two-hybrid construct (other, Arabidopsis thaliana, UniProt Q6X5Y6 1-430, looked up)
chain: MKKRLTTSTCSSSPSSSVSSSTTTSSPIQSEAPRPKRAKRAKKSSPSGDKSHNPTSPASTRRSSIYRGVTRHRWTGRFEAHLWDKSSWNSIQNKKGKQVYLGAYDSEEAAAHTYDLAALKYWGPDTILNFPAETYTKELEEMQRVTKEEYLASLRRQSSGFSRGVSKYRGVARHHHNGRWEARIGRVFGNKYLYLGTYNTQEEAAAAYDMAAIEYRGANAVTNFDISNYIDRLKKKGVFPFPVNQANHQEGILVEAKQEVETREAKEEPREEVKQQYVEEPPQEEEEKEEEKAEQQEAEIVGYSEEAAVVNCCIDSSTIMEMDRCGDNNELAWNFCMMDTGFSPFLTDQNLANENPIEYPELFNELAFEDNIDFMFDDGKHECLNLENLDCCVVGRESPPSSSSPLSCLSTDSASSTTTTTTSVSCNYLV
notes: Yeast two-hybrid fusion (bait pBTM116-D9 against BPM1 as prey; both bait and prey in the self-assembly test); also called WRINKLED1
B3: BPM3 (At2 g39760), yeast two-hybrid construct (other)
chain: MSTVGGIEQLIPDSVSTSFIETVNGSHQFTIQGYSLAKGMSPGKFIQSDIFSVGGYDWAIYFYPDGKNPEDQSSYISLFIALASDSNDIRALFELTLMDQSGKGKHKVHSHFDRALEGGPYTLKYKGSMWGYKRFFKRSALETSDYLKDDCLVINCTVGVVRARLEGPKQYGIVLPLSNMGQGLKDLLDSEVGCDIAFQVGDETYKAHKLILAARSPVFRAQFFGPIGNNNVDRIVIDDIEPSIFKAMLSFIYTDVLPNVHEITGSTSASSFTNMIQHLLAAADLYDLARLKILCEVLLCEKLDVDNVATTLALAEQHQFLQLKAFCLEFVASPANLGAVMKSEGFKHLKQSCPTLLSELLNTVAAADKSSTSGQSNKKRSASSVLGCDTTNVRQLRRRTRKEVRAVS
notes: Yeast two-hybrid fusion (pACT2 or pBTM116-D9)
B4: BPM5 (At5 g21010), yeast two-hybrid construct (other, Arabidopsis thaliana, UniProt Q1EBV6 1-410, looked up)
chain: MSESVIQGSNPDRVLSPTSSKSVTQTVNGSHQFVIQGYSLAKGMGIGKHIASDNFSVGGYQWGIFFYPDGKNPEDNSSYVSVFIALASEGTEVRALFELALVDQSGKGKHKVHSHFERSLDGGPYTLKYRGSMWGYKRFFRRSILETSDYLKDDCLIINCTVGVVVSEILCPQLHSVHVPDSELGSHFGVLLDSMEGSDITFNIAGEKFLAHKLVLAARSPFFKSKFFSEFEANNTEVTINDLEPKVFKALLQFMYKDSLPEDVEPATAHTFERLKLSEIYETLIVKVLAAADKYDLIRLRLLCESHICKGVSVKSVAKILALADRYNAKELKGVCLKFTAENLAAVLETDAYQQMKDECVTLQSELLKAVAGHEEGSNSTGGAKSQSVWAQLSDGGGDTTSRHVRQRTT
notes: Yeast two-hybrid fusion

Key:
Experiment in all cases: yeast two-hybrid
[1] = molecular target: B2
Method: (§1) If not otherwise stated in this and subsequent FIGS. 30 μg of total protein extract were loaded as input, and experiments were done with 14-days old seedlings.
(§2) SDII selection medium supplemented with uracil and His was used as a transformation control, while for interaction studies, SDIV minimal medium was chosen without uracil and His supplements. Photos were taken from single spots 7 days after plating. […] Extraction and washing buffers contained at all times 1 mM PMSF (Sigma-Aldrich) and 10 μM MG132 (Sigma-Aldrich) to prevent proteolytic and proteasomal activities, respectively. […] In general, proteins were incubated at least 1.5 h at 4° C. under shaking conditions before being centrifuged.

[2] = molecular target: T1, BPM4 (At3 g03740), yeast two-hybrid …
Method: as §1, §2

yeast two-hybrid = molecular target: the molecule itself
Method: as §1, §2

Binder | binding result [1] | binding result [2] | binding result (yeast two-hybrid)
B1 | binds |  | 
B2 |  | binds | binds
B3 | binds |  | 
B4 | binds |  | 
